Results from article PMC5082683 (PLoS Pathogens, 2016).

Biological target: recombinant ectodomain of Gc (rGc) from Hantaan virus strain 76-118 (Hantaan virus strain 76-118, UniProt P08668)
Assay: SEC-MALS; Gc mixed with an excess of scFv A5, Tris pH 8
Conditions: both partners purified

B1: scFv A5 (scFv, V domains shown)
VH: QVQLQESGPGLVKPSETLSLTCVVSGGSISSSNWWSWVRQPPGKGLEWIGEIYHSGSPNYNPSLKSRVTISVDKSKNQFSLKLSSVTAADTAVYYCARQMRQWGQGTLVTVSS
VL: SSELTQDPAVSVALGQTVRITCQGDSLRSYYASWYQQKPGQAPVLVIYGKNNRPSGIPDRFSGSSSGNTASLTITGAQAEDEADYYCNSRDSSGNHNVFGGGTKLTVL
notes: also called human single-chain variable domain antibody fragment A5
In the case of B1, the “stoichiometry N” value is reported as 1.
